Holding throughout (experiment): ELISA
Assay [1] deals with T1, HD21 (huntingtin exon 1 protein with 21 polyQ repeats after cleavage of the GST tag; aggregation reaction) (human, UniProt P42858 1-88).
T1 chain: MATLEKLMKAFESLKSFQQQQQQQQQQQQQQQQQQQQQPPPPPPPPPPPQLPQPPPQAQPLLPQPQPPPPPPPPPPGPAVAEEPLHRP

Assay [2] deals with T2, HD49 (huntingtin exon 1 protein with 49 polyQ repeats after cleavage of the GST tag; aggregation reaction) (human, UniProt P42858 1-88).
T2 chain: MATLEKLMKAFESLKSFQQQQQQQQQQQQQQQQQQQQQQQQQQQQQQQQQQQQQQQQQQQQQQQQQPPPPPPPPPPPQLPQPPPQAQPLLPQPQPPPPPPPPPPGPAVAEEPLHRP

For assay [3], the target named is T3, GST-HttExon1Q21 (recombinant huntingtin exon 1 protein with 21 polyQ repeats fused to an N-terminal GST tag) (;human, UniProt P08515 1-218 = GST; P42858 1-88).
Assay [4] deals with T1, HD21 (huntingtin exon 1 protein with 21 …).
Assay [5] deals with T4, BSA-coupled synthetic peptide of the P-rich domain sequence of huntingtin exon 1 (coupled to BSA).
T4 peptide: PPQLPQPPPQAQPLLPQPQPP

The target in assay [6] is T2, HD49 (huntingtin exon 1 protein with 49 …).
In assay [7] the target is T3, GST-HttExon1Q21 (recombinant huntingtin …). This is another data set of the same source.
Target sequence in this assay (P08515 1-218, tags or fused parts left off): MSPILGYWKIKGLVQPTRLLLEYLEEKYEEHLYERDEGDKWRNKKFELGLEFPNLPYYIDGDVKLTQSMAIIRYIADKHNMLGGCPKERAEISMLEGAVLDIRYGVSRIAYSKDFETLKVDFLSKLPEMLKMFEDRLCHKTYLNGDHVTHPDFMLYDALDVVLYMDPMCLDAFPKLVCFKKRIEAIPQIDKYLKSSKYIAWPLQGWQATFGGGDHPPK
The target in assay [8] is T1, HD21 (huntingtin exon 1 protein with 21 …).
Assay [9] has as its target T2, HD49 (huntingtin exon 1 protein with 49 …).
Assay [10] has as its target T3, GST-HttExon1Q21 (recombinant huntingtin …). This is another data set of the same source.
Target sequence in this assay (P08515 1-218, tags or fused parts left off): as above
Assay [11] has as its target T1, HD21 (huntingtin exon 1 protein with 21 …).
The target in assay [12] is T2, HD49 (huntingtin exon 1 protein with 49 …).
The target of assay [13] is T3, GST-HttExon1Q21 (recombinant huntingtin …). The source holds these as a separate data set.
The target of assay [14] is T1, HD21 (huntingtin exon 1 protein with 21 …).
The target in assay [15] is T2, HD49 (huntingtin exon 1 protein with 49 …).
The target in assay [16] is T3, GST-HttExon1Q21 (recombinant huntingtin …). The source holds these as a separate data set.

Our source for the EC50 values is US20170166631A1 (published 2017).

Broadly, the EC50 is the concentration giving half of the maximal effect.

Where two headings read alike, the source gives them in different places.

B1: NI-302.64E5 (antibody, V domains shown)
VH: EVQLVETGGGLVKPGGSLRLSCAASGFTFDQAWMSWVRQVPGKGLEWVGRIKTKTEGEATDYAAPVRGRFTISRDDSEDTVFLQMNSLKTEDTALYYCTSTGVLAAAVDVYWGQGTLVTVSS
VL: DIQLTQSPDSLAVSLGERATMTCKSSQSLFYSYNNENYLAWYQQRPGQPPKLLIYWASTRESGVPDRFSGSGSGTDFTLTISSLQAEDVAVYYCQQYYSTPQTFGQGTKVDIK
As to B1, the EC50 came out at 0.7 nM in assay [1]; 1.6 nM in [2]; 1.4 nM in [3]; 0.7 nM in [4]; 0.1 nM in assay [5]; 1.6 nM in [6]. Further, in assay [7], the EC50 was determined as 1.4 nM.

B2: NI-302.11A4 (antibody, V domains shown)
VH: EVQLVESGGGLIQPGGSLRLSCAASGFPVSSSYMSWVRQAPGEGLEWVSVLYRDGDTYYADSVQGRFTISRDNSQNTFYLQMNSLKAEDTAVYYCAGDRRSSHYYYGMDVWGQGTTVTVSS
VL: EIVMTQSPGTLSLSPGERATLSCRASQSVSSSYFAWYQQKPGQAPRLLIYGTSRRATAIPDRFSGSGSGTDFTLTISRLEPEDFAVYYCQQYGSSWTFGPGTKVEIK
In the case of B2, the EC50 in [8] was 18 nM; in [9], 19 nM; in assay [10], 1.4 nM; in assay [11], 18.2 nM; in assay [12], 19 nM; in assay [13], 1.4 nM.

B3: NI-302.2A2 (antibody, V domains shown)
VH: EVQLVESGGGLVQPGGSLRLSCAASGFTFSTYWMNWVRQAPGKGLEWVANIKPDGSDKYYVDSVKGRFTISRDNAKNSLYLQMNSLRDEDTAVYYCARGDGSGWNVYWGQGTLVTVSS
VL: DIQMTQSPDSLAVSLGERATINCKSSQSLLYTSKNKDSKNYLGWYQQKPGQPPKLLIYWASTRESGVPDRFSGSGSGTDFTLTISSLQAEDVAVYYCQQYYTTPQFGGGTKVEIK
For B3, the EC50 in assay [14] was 12.3 nM; in assay [15], about 100 nM; in [16], 10.1 nM; in [4] it was 12.3 nM; in [5], 1.4 nM; in assay [6], over 100 nM. In addition, the EC50 in assay [7] is 10.1 nM.

B4: NI-302.39G12 (antibody, V domains shown)
VH: EVQLVQSGGGLVHPWGSLRLSCAASGFSVSNYAITWVRRAPGKGLQYISVIYRDGRTYYGDSVRGRFTISRDDSKNTLYLQMNSLRFEDTAVYYCARAHGQYYYGVDVWGQGTTVTVSS
VL: DVVMTQSPLSLSVSPGEPASISCRSSQSLLHSNGYNYLDWYRQKPGQSPQLLIYLSSNRPSGVPDRFSASGSGTEFTLQISRVEAEDVGVYYCMQSLQTFTFGGGTKVDIK
In the case of B4, the EC50 in [8] turned out to be 15 nM; in assay [9] it was 28 nM; in assay [10], 3.4 nM; in assay [11], 15 nM; in assay [12], 28 nM; in assay [13], 3.4 nM.

B5: NI-302.15D3 (antibody, V domains shown)
VH: EVQLVESGGDLVQPGGSLRLSCAASGFTFSSYWMHWVRQAPGKGLVWVSRISNDGSSKTYADSVKGRFTISRDNAKNTLYLQMNSLRAEDTAVYYCAILGGYCSSTSCRPFDNWGQGTLVTVSS
VL: QSALTQPASVSGSPGQSITISCTGTSSDVGVYNYVSWYQQHPGKAPKLMIFDVSNRPSGISNRFSGSKSGNTASLTISGLQAEDEADYYCSSYTSSDTWVFGGGTKLTIL
Consider B5, for which the EC50 in assay [14] turned out to be 6.4 nM; in assay [15], 15 nM; in assay [16], 4.2 nM; in [4] it was 6.4 nM; in assay [5], 1.2 nM; in assay [6], 15 nM. Moreover, in assay [7], the EC50 was 4.2 nM.
